T1: recombinant WNV capsid protein with an N-terminal hexa-histidine tag, expressed in E. coli from pQE30, Q9Q6P4
T1 chain: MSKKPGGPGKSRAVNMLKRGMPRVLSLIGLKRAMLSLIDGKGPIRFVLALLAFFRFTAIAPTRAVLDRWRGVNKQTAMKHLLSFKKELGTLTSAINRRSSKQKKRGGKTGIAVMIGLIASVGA

T2: recombinant WNV capsid mutant rC(S36A), N-terminal hexa-histidine tag, expressed in E. coli from pQE30, Q9Q6P4
T2 chain: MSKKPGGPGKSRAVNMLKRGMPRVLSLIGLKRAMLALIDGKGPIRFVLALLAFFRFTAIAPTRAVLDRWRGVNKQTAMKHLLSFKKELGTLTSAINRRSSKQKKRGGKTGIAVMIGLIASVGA


Legend:
[1] = target: T1, recombinant WNV capsid protein with an …
[2] = target: T2, recombinant WNV capsid mutant rC(S36A), …
[3] = target: CKII-Pep, commercial CK2 substrate peptide

Protein | in vitro phosphorylation (32P-ATP kinase assay, autoradiography) [1] | in vitro phosphorylation (CK2 kinase assay, autoradiography) [2] | dot-blot kinase assay [3] | in vitro phosphorylation (kinase assay with a single recombinant subunit) [1]
recombinant CK2 (whole enzyme, Biomol) (protein) chain 1: MSGPVPSRARVYTDVNTHRPREYWDYESHVVEWGNQDDYQLVRKLGRGKYSEVFEAINITNNEKVVVKILKPVKKKKIKREIKILENLRGGPNIITLADIVKDPVSRTPALVFEHVNNTDFKQLYQTLTDYDIRFYMYEILKALDYCHSMGIMHRDVKPHNVMIDHEHRKLRLIDWGLAEFYHPGQEYNVRVASRYFKGPELLVDYQMYDYSLDMWSLGCMLASMIFRKEPFFHGHDNYDQLVRIAKVLGTEDLYDYIDKYNIELDPRFNDILGRHSRKRWERFVHSENQHLVSPEALDFLDKLLRYDHQSRLTAREAMEHPYFYTVVKDQARMGSSSMPGGSTPVSSANMMSGISSVPTPSPLGPLAGSPVIAAANPLGMPVPAAAGAQQ chain 2: not shown | purified fractions yielded was phosphorylated by CK2 | the phosphorylation signal was totally absent from C(S36A) while the wild rC still was labeled in the in vitro assay | Only Cp(30-48) and CK-II-Pep peptides reacted positively to CK2 assay | 
purified recombinant CK2α subunit protein (Biomol) (protein) MSGPVPSRARVYTDVNTHRPREYWDYESHVVEWGNQDDYQLVRKLGRGKYSEVFEAINITNNEKVVVKILKPVKKKKIKREIKILENLRGGPNIITLADIVKDPVSRTPALVFEHVNNTDFKQLYQTLTDYDIRFYMYEILKALDYCHSMGIMHRDVKPHNVMIDHEHRKLRLIDWGLAEFYHPGQEYNVRVASRYFKGPELLVDYQMYDYSLDMWSLGCMLASMIFRKEPFFHGHDNYDQLVRIAKVLGTEDLYDYIDKYNIELDPRFNDILGRHSRKRWERFVHSENQHLVSPEALDFLDKLLRYDHQSRLTAREAMEHPYFYTVVKDQARMGSSSMPGGSTPVSSANMMSGISSVPTPSPLGPLAGSPVIAAANPLGMPVPAAAGAQQ |  |  |  | Neither of the subunits was able to phosphorylate the protein by themselves

Reference: US20100256217
